From FireProtDB (doi:10.1073/pnas.0911904107)

B1: Lipid A palmitoyltransferase PagP, P37001 (parent)
chain: MNVSKYVAIFSFVFIQLISVGKVFANADEWMTTFRENIAQTWQQPEHYDLYIPAITWHARFAYDKEKTDRYNERPWGGGFGLSRWDEKGNWHGLYAMAFKDSWNKWEPIAGYGWESTWRPLADENFHLGLGFTAGVTARDNWNYIPLPVLLPLASVGYGPVTFQMTYIPGTYNNGNVYFAWMRFQF

Variants of: B1
Settings: Escherichia coli (strain K12), pH 8, 25 °C, Urea, CD, structure 1THQ, whole UniProt chain shown
[1] = Sodium phosphate 50 mM, reversible: Yes
[2] = sodium phosphate buffer, transition: 2, reversible: yes

## MNVSKYVAIFSFVFIQLISVGKVFANADEWMTTFRENIAQTWQQPEHYNLYIPAITWHARFAYDKEKTDRYNERPWGGGFGLSRWDEKGNWHGLYAMAFKDSWNKWEPIAGYGWESTWRPLADENFHLGLGFTAGVTARDNWNYIPLPVLLPLASVGYGPVTFQMTYIPGTYNNGNVYFAWMRFQF [D49N]
[1]
  ddG of mutation (higher = less stable): 0.6 kcal/mol
  denaturant midpoint (higher = more stable): 8.4 M
  unfolding free energy: 13.8 kcal/mol
[2]
  ddG of mutation (higher = less stable): 5.98 kcal/mol
  denaturant midpoint (higher = more stable): 8.4 M
  unfolding free energy: 8.4 kcal/mol

## MNVSKYVAIFSFVFIQLISVGKVFANADEWMTTFRENIAQTWQQPEHYDLYIPAITWHARFAYDKEKTDRYNERPWGGGFGLSRWDEKGNWHGLYAMAFKDSWNKWEPIAGFGWESTWRPLADENFHLGLGFTAGVTARDNWNYIPLPVLLPLASVGYGPVTFQMTYIPGTYNNGNVYFAWMRFQF [Y112F]
[1]
  ddG of mutation (higher = less stable): 1.37 kcal/mol
  denaturant midpoint (higher = more stable): 7.93 M
  unfolding free energy: 13 kcal/mol
[2]
  ddG of mutation (higher = less stable): 6.45 kcal/mol
  denaturant midpoint (higher = more stable): 7.93 M
  unfolding free energy: 7.93 kcal/mol

## MNVSKYVAIFSFVFIQLISVGKVFANADEWMTTFRENIAQTWQQPEHYDLYIPAITWHARFAYDKEKTDRYNERPWGGGFGLARWDEKGNWHGLYAMAFKDSWNKWEPIAGYGWESTWRPLADENFHLGLGFTAGVTARDNWNYIPLPVLLPLASVGYGPVTFQMTYIPGTYNNGNVYFAWMRFQF [S83A]
[1]
  ddG of mutation (higher = less stable): 1.26 kcal/mol
  denaturant midpoint (higher = more stable): 8.01 M
  unfolding free energy: 13.1 kcal/mol
[2]
  ddG of mutation (higher = less stable): 6.37 kcal/mol
  denaturant midpoint (higher = more stable): 8.01 M
  unfolding free energy: 8.01 kcal/mol

## MNVSKYVAIFSFVFIQLISVGKVFANADEWMTTFRENIAQTWQQPEHADLYIPAITWHARFAYDKEKTDRYNERPWGGGFGLSRWDEKGNWHGLYAMAFKDSWNKWEPIAGYGWESTWRPLADENFHLGLGFTAGVTARDNWNYIPLPVLLPLASVGYGPVTFQMTYIPGTYNNGNVYFAWMRFQF [Y48A]
[1]
  ddG of mutation (higher = less stable): 0.91 kcal/mol
  denaturant midpoint (higher = more stable): 8.22 M
  unfolding free energy: 13.5 kcal/mol
[2]
  ddG of mutation (higher = less stable): 6.16 kcal/mol
  denaturant midpoint (higher = more stable): 8.22 M
  unfolding free energy: 8.22 kcal/mol

## MNVSKYVAIFSFVFIQLISVGKVFANADEWMTTFRENIAQTWQQPEHYDLYIPAITWHARFAYDKEKTDRYNERPWGGGFGLSRWDEKGNWHGLYAAAFKDSWNKWEPIAGYGWESTWRPLADENFHLGLGFTAGVTARDNWNYIPLPVLLPLASVGYGPVTFQMTYIPGTYNNGNVYFAWMRFQF [M97A]
[1]
  ddG of mutation (higher = less stable): 0.34 kcal/mol
  denaturant midpoint (higher = more stable): 8.56 M
  unfolding free energy: 14 kcal/mol
[2]
  ddG of mutation (higher = less stable): 5.82 kcal/mol
  denaturant midpoint (higher = more stable): 8.56 M
  unfolding free energy: 8.56 kcal/mol

## MNVSKYVAIFSFVFIQLISVGKVFANADEWMTTFRENIAQTWQQPEHYDLYIPAITWHARFAYDKEKTDRYNERPAGGGFGLSRWDEKGNWHGLYAMAFKDSWNKWEPIAGYGWESTWRPLADENFHLGLGFTAGVTARDNWNYIPLPVLLPLASVGYGPVTFQMTYIPGTYNNGNVYFAWMRFQF [W76A]
[1]
  ddG of mutation (higher = less stable): 0.45 kcal/mol
  denaturant midpoint (higher = more stable): 8.5 M
  unfolding free energy: 13.9 kcal/mol
[2]
  ddG of mutation (higher = less stable): 5.88 kcal/mol
  denaturant midpoint (higher = more stable): 8.5 M
  unfolding free energy: 8.5 kcal/mol

## MNVSKYVAIFSFVFIQLISVGKVFANADEWMTTFRENIAQTWQQPEHYDLYIPAITWHARFAYDKEKTDRYNERPWGGGAGLSRWDEKGNWHGLYAMAFKDSWNKWEPIAGYGWESTWRPLADENFHLGLGFTAGVTARDNWNYIPLPVLLPLASVGYGPVTFQMTYIPGTYNNGNVYFAWMRFQF [F80A]
[1]
  ddG of mutation (higher = less stable): 1.05 kcal/mol
  denaturant midpoint (higher = more stable): 8.13 M
  unfolding free energy: 13.3 kcal/mol
[2]
  ddG of mutation (higher = less stable): 6.25 kcal/mol
  denaturant midpoint (higher = more stable): 8.13 M
  unfolding free energy: 8.13 kcal/mol

## MNVSKYVAIFSFVFIQLISVGKVFANADEWMTTFRENIAQTWQQPEHYDLYIPAITWHARFAYDKEKTDRYNERPWGGGFGLSRWDEKGNWHGLYAMAFKDSWNKWEPIGGYGWESTWRPLADENFHLGLGFTAGVTARDNWNYIPLPVLLPLASVGYGPVTFQMTYIPGTYNNGNVYFAWMRFQF [A110G]
[1]
  ddG of mutation (higher = less stable): 0.87 kcal/mol
  denaturant midpoint (higher = more stable): 8.24 M
  unfolding free energy: 13.5 kcal/mol
